According to article PMC3678169 (The Journal of Cell Biology, 2013):
Each block holds one binder with its values, some of them ahead of it. Where no end group is shown, it is not given here. The star is where a group is joined. Dansyl = CN(C)c1cccc2c(S(=O)(=O)*)cccc12

B1: GST-p67 fusion (natural protein, human, UniProt P19878 1-526, looked up)
chain: MSLVEAISLWNEGVLAADKKDWKGALDAFSAVQDPHSRICFNIGCMYTILKNMTEAEKAFTRSINRDKHLAVAYFQRGMLYYQTEKYDLAIKDLKEALIQLRGNQLIDYKILGLQFKLFACEVLYNIAFMYAKKEEWKKAEEQLALATSMKSEPRHSKIDKAMECVWKQKLYEPVVIPVGKLFRPNERQVAQLAKKDYLGKATVVASVVDQDSFSGFAPLQPQAAEPPPRPKTPEIFRALEGEAHRVLFGFVPETKEELQVMPGNIVFVLKKGNDNWATVMFNGQKGLVPCNYLEPVELRIHPQQQPQEESSPQSDIPAPPSSKAPGRPQLSPGQKQKEEPKEVKLSVPMPYTLKVHYKYTVVMKTQPGLPYSQVRDMVSKKLELRLEHTKLSYRPRDSNELVPLSEDSMKDAWGQVKNYCLTLWCENTVGDQGFPDEPKESEKADANNQTTEPQLKKGSQVEALFSYEATQPEDLEFQEGDIILVLSKVNEEWLEGECKGKVGIFPKVFVEDCATTDLESTRREV

Legend:
[1] = target: 15N-labeled Tiam1 PDZ domain (human, UniProt Q13009 841-930); assay: NMR titration
[2] = target: His-tagged Tiam1 PHn-PHc (423–1406) (human, UniProt Q13009 423-1406); assay: pull-down
[3] = target: B1; assay: pull-down

Sequence of 15N-labeled Tiam1 PDZ domain (Q13009 841-930): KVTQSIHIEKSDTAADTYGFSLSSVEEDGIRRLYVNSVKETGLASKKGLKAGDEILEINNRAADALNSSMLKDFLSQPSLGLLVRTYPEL
Sequence of His-tagged Tiam1 PHn-PHc (423–1406) (Q13009 423-1406): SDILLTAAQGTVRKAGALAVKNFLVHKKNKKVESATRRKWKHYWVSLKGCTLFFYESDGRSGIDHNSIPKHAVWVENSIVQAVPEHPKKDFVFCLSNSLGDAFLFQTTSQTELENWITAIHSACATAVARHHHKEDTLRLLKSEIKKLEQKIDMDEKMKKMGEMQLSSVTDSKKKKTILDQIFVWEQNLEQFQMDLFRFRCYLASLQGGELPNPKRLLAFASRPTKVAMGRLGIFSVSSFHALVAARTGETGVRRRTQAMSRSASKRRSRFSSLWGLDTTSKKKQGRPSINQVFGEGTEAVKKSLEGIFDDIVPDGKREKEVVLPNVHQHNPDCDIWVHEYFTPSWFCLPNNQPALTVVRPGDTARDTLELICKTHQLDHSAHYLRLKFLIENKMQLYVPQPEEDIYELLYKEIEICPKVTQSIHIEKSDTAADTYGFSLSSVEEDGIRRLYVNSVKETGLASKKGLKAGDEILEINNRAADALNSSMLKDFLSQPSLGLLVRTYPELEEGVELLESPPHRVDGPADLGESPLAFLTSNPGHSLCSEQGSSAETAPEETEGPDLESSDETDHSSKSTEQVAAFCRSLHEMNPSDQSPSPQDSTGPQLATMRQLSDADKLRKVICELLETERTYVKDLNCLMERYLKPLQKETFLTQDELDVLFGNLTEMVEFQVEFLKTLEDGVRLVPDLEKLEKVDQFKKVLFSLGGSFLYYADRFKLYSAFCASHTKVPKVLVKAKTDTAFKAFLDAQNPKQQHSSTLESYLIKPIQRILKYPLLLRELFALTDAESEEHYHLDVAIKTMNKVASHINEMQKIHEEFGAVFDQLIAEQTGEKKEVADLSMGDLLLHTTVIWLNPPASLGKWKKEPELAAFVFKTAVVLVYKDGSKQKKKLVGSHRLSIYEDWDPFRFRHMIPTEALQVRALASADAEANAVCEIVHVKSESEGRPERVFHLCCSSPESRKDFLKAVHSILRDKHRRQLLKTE

Kd [1]: 980 ± 150 µM
Binder: Dansyl-MLAELYGSDPREELLY [human VE-cadherin peptide (654–669; MLAELYGSDPREELLY)]

Binder: B1
binding result [2]: binds

binding result [3]: binds
B2: His-tagged Tiam1 PHn-CC-Ex domain (429–702) (domain or fragment, human, UniProt Q13009 429-702, looked up)
chain: AAQGTVRKAGALAVKNFLVHKKNKKVESATRRKWKHYWVSLKGCTLFFYESDGRSGIDHNSIPKHAVWVENSIVQAVPEHPKKDFVFCLSNSLGDAFLFQTTSQTELENWITAIHSACATAVARHHHKEDTLRLLKSEIKKLEQKIDMDEKMKKMGEMQLSSVTDSKKKKTILDQIFVWEQNLEQFQMDLFRFRCYLASLQGGELPNPKRLLAFASRPTKVAMGRLGIFSVSSFHALVAARTGETGVRRRTQAMSRSASKRRSRFSSLWGLDTT
